Experimental data reported in US20240181022A1, “AMURINS LYSINS, AND LYSIN-ANTIMICROBIAL PEPTIDE (AMP) CONSTRUCTS ACTIVE AGAINST GRAM-NEGATIVE BACTERIA” (priority 2021, published 2024).
Where “and” joins values, the source holds several entries; their conditions need not be identical. Identical values can stand only once. Like-named read-outs stand apart in the source and are kept apart here.

Experiments:
[1] = system: Citrobacter freundii; assay: MIC by broth microdilution against Citrobacter freundii; format: cell-based; settings: N 2
Procedure: (§1) MIC values were determined by broth microdilution against clinical isolates and resistant isolates from a wide range of bacterial species, including isolates from the CDC Antibiotic Resistance bank, including the GN ESKAPE pathogens and E. coli, including carbapenem-resistant Enterobacteriaciae, Acinetobacter, and Pseudomonas.

[2] = system: Kluyvera ascorbate; assay: MIC by broth microdilution against Kluyvera ascorbate; format: cell-based; settings: N 1
Procedure: as §1

[3] = system: Raoultella ornithinolytica; assay: MIC by broth microdilution against Raoultella ornithinolytica; format: cell-based; settings: N 1
Procedure: as §1

[4] = system: Salmonella senftenberg; assay: MIC by broth microdilution against Salmonella senftenberg; format: cell-based; settings: N 1
Procedure: as §1

[5] = system: A. baumannii; assay: MBEC against A. baumannii biofilm; format: cell-based, Acinetobacter baumannii; settings: MDR and XDR A. baumannii (22)
[6] = system: E. cloacae; assay: MBEC against E. cloacae biofilm; format: cell-based, Enterobacter cloacae; settings: MDR and XDR E. cloacae (14)
[7] = system: P. aeruginosa; assay: Checkerboard synergy assay (FICI) with antibiotics against P. aeruginosa; format: cell-based, Pseudomonas aeruginosa; design: key to average FICI score with amikacin: FICI: ≤0.5 synergy, >0.5–≤1 additive, >1 indifferent; settings: for MIC (dual agent): GN370 + meropenem
Method in brief: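 Checkerboard of 2-fold antibiotic dilutions crossed with GN370 (lysin peptide), bacteria at 1×10^5 CFU/ml in CAA, with or without human serum or pulmonary surfactant. ΣFICmin taken as FICI: ≤0.5 synergy, >0.5–≤1 additive, >1 indifferent.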

[8] = system: K. pneumoniae; assay: GN370 time-kill assay, K. pneumoniae; format: cell-based, Klebsiella pneumoniae; settings: for Log10 CFU/mL: K. pneumoniae ATCC 700603
Procedure: (§2) A kinetic analysis of GN370 bactericidal activity was performed using a time-kill assay format in which CFU reductions of each target organism (P. aeruginosa, K. pneumoniae, A. baumannii, E. coli, and E. cloacae) were measured over 24 hours at 37° C. […] Bactericidal activity was defined as CFU reductions of ≥3-log 10 CFU/mL as compared to the inoculum at the 24-hour time point.

[9] = system: A. baumannii; assay: GN370 time-kill assay, A. baumannii; format: cell-based, Acinetobacter baumannii; settings: for Log10 CFU/mL: A. baumannii ATCC BAA 747
Procedure: as §2

[10] = system: E. cloacae (ATCC 13047); assay: microbe, parasite or virus in culture; format: cell-based, Enterobacter cloacae
[11] = system: P. aeruginosa AR-769; assay: GN370 in the rabbit pneumonia model; format: in vivo, New Zealand White rabbits
[12] = system: Serratia marcescens; assay: MIC by broth microdilution against Serratia marcescens; format: cell-based; settings: N 9
Procedure: as §1

[13] = P. aeruginosa (ATCC 27853, CFS 1766)
[14] = P. aeruginosa (ATCC 27853, CFS 1766), GN370 with meropenem
[15] = P. aeruginosa (CFS 2045), GN370 with meropenem
[16] = P. aeruginosa (CFS 2061), GN370 with meropenem
[17] = P. aeruginosa strain AR-769, GN370 with Amikacin
[18] = P. aeruginosa strain AR-769, GN370 with Cefepime
[19] = P. aeruginosa strain AR-769, GN370 with Ceftazidime
[20] = P. aeruginosa strain AR-769, GN370 with Ciprofloxacin
[21] = P. aeruginosa strain AR-769, GN370 with Colistin
[22] = P. aeruginosa strain AR-769, GN370 with Meropenem
[23] = P. aeruginosa strain AR-769, GN370 with Tobramycin
[24] = P. aeruginosa strain AR-769, in combination with Amikacin
[25] = P. aeruginosa strain AR-769, in combination with Cefepime
[26] = P. aeruginosa strain AR-769, in combination with Ceftazidime
[27] = P. aeruginosa strain AR-769, in combination with Ciprofloxacin
[28] = P. aeruginosa strain AR-769, in combination with Meropenem
[29] = P. aeruginosa strain AR-769, in combination with Tobramycin

B1: GN370: lysin-AMP construct, SEQ ID NO: 149: MIDR, FIRL and NPTH moieties N-terminal to GN202 lysin (protein)
chain: MIDRFIRLNPTHGPRRPRRPGRRAPVRTSQRGIDLIKSFEGLRLSAYQDSVGVWTIGYGTTRGVTRYMTITVEQAERMLSNDIQRFEPELDRLAKVPLNQNQWDALMSFVYNLGAANLASSTLLDLLNKGDYQGAADQFPHWVNAGGKRLDGLVKRRAAERALFLEPLS
modifications: GN370 lysin
MIC Range [1]: 0.5 to 2 µg/mL
MIC Range [2]: 1 µg/mL
MIC Range [3]: 0.25 µg/mL
MIC Range [4]: 2 µg/mL
MBEC50 [5]: 1 µg/mL
MBEC90 [5]: 2 µg/mL
MBEC Range [5]: 0.5 to 2 µg/mL
Number of isolates at MBEC 0.5 μg/mL [5]: 2
Number of isolates at MBEC 1 μg/mL [5]: 12
Number of isolates at MBEC 2 μg/mL [5]: 8
MBEC50 [6]: 1 µg/mL
MBEC90 [6]: 2 µg/mL
MBEC Range [6]: 0.5 to 2 µg/mL
Number of isolates at MBEC 0.5 μg/mL [6]: 1
Number of isolates at MBEC 1 μg/mL [6]: 9
Number of isolates at MBEC 2 μg/mL [6]: 4
GN370 FIC [7]: 0.125
synergy with meropenem ([7]; 3 strains of P. aeruginosa): synergizes with meropenem against P. aeruginosa
MIC (alone) [7, 13]: 1 µg/mL
MIC (dual agent) [7, 13]: 0.06 µg/mL
FICmin [7, 14]: 0.091
FICmin interpretation [7, 14]: (Synergy)
MIC (alone) ([7]; P. aeruginosa (CFS 2045)): 2 µg/mL
MIC (dual agent) ([7]; P. aeruginosa (CFS 2045)): 0.06 µg/mL
FICmin [7, 15]: 0.155
FICmin interpretation [7, 15]: (Synergy)
MIC (alone) ([7]; P. aeruginosa (CFS 2061)): 4 µg/mL
MIC (dual agent) ([7]; P. aeruginosa (CFS 2061)): 0.25 µg/mL
FICmin [7, 16]: 0.125
FICmin interpretation [7, 16]: (Synergy)
GN370 MIC (single agent) ([7]; P. aeruginosa strain AR-769): 2 µg/mL
FICave [7, 17]: 0.323
FICmin [7, 17]: 0.281
FICave [7, 18]: 0.542 and 0.419
FICmin [7, 18]: 0.5 and 0.375
FICave [7, 19]: 1.073
FICmin [7, 19]: 1.031
FICave [7, 20]: 0.543 and 0.417
FICmin [7, 20]: 0.5 and 0.375
FICave [7, 21]: 0.292
FICmin [7, 21]: 0.25
FICave [7, 22]: 0.422 and 0.419
FICmin [7, 22]: 0.375
FICave [7, 23]: 0.418
FICmin [7, 23]: 0.375
average FICI score with amikacin ([7]; P. aeruginosa strain AR-769, checkerboard): 0.323
GN370 FIC [7, 24]: 0.031
GN370 MIC (combo) [7, 24]: 0.063 µg/mL
GN370 FIC [7, 25]: 0.25
GN370 MIC (combo) [7, 25]: 0.5 µg/mL
GN370 FIC [7, 26]: 0.031
GN370 MIC (combo) [7, 26]: 0.063 µg/mL
GN370 FIC [7, 27]: 0.25
GN370 MIC (combo) [7, 27]: 0.5 µg/mL
GN370 MIC (combo) ([7]; P. aeruginosa strain AR-769, in combination with Colistin): 0.25 µg/mL
GN370 FIC [7, 28]: 0.25
GN370 MIC (combo) [7, 28]: 0.5 µg/mL
GN370 FIC [7, 29]: 0.25
GN370 MIC (combo) [7, 29]: 0.5 µg/mL
Log10 CFU/mL ([8]; 0.2x MIC, 1 hr): 5.2 Log10 CFU/mL
Log10 CFU/mL ([8]; 0.2x MIC, 3 hr): 5.0 Log10 CFU/mL
Log10 CFU/mL ([8]; 0.2x MIC, 24 hr): 8.5 Log10 CFU/mL
Log10 CFU/mL ([8]; 1x MIC, 1 hr): 2.0 Log10 CFU/mL
Log10 CFU/mL ([8]; 1x MIC, 3 hr): 1.5 Log10 CFU/mL
Log10 CFU/mL ([8]; 1x MIC, 24 hr): 1.5 Log10 CFU/mL
Log10 CFU/mL ([8]; 2x MIC, 1 hr): 1.5 Log10 CFU/mL
Log10 CFU/mL ([8]; 2x MIC, 3 hr): 1.5 Log10 CFU/mL
Log10 CFU/mL ([8]; 2x MIC, 24 hr): 1.5 Log10 CFU/mL
Log10 CFU/mL ([8]; 5x MIC, 1 hr): 1.5 Log10 CFU/mL
Log10 CFU/mL ([8]; 5x MIC, 3 hr): 1.5 Log10 CFU/mL
Log10 CFU/mL ([8]; 5x MIC, 24 hr): 1.5 Log10 CFU/mL
concentration with bactericidal activity (≥3-log 10 CFU/mL reduction at 24 hours) ([8]; K. pneumoniae, 37° C.): ≥ 1 ×MIC
Log10 CFU/mL ([9]; 0.2x MIC, 1 hr): 3.8 Log10 CFU/mL
Log10 CFU/mL ([9]; 0.2x MIC, 3 hr): 4.0 Log10 CFU/mL
Log10 CFU/mL ([9]; 0.2x MIC, 24 hr): 5.8 Log10 CFU/mL
Log10 CFU/mL ([9]; 1x MIC, 1 hr): 1.5 Log10 CFU/mL
Log10 CFU/mL ([9]; 1x MIC, 3 hr): 1.5 Log10 CFU/mL
Log10 CFU/mL ([9]; 1x MIC, 24 hr): 1.5 Log10 CFU/mL
Log10 CFU/mL ([9]; 2x MIC, 1 hr): 1.5 Log10 CFU/mL
Log10 CFU/mL ([9]; 2x MIC, 3 hr): 1.5 Log10 CFU/mL
Log10 CFU/mL ([9]; 2x MIC, 24 hr): 1.5 Log10 CFU/mL
Log10 CFU/mL ([9]; 5x MIC, 1 hr): 1.5 Log10 CFU/mL
Log10 CFU/mL ([9]; 5x MIC, 3 hr): 1.5 Log10 CFU/mL
Log10 CFU/mL ([9]; 5x MIC, 24 hr): 1.5 Log10 CFU/mL
concentration with bactericidal activity (≥3-log 10 CFU/mL reduction at 24 hours) ([9]; A. baumannii, 37° C.): ≥ 1 ×MIC
change in MIC over 28-day serial passage ([10]; E. cloacae (ATCC 13047)): ≤ 2 fold
MIC ([10]; E. cloacae ATCC 13047, target organism of serial passage study): 1 µg/mL
animals surviving until the end of the study ([11]; GN370 at 3 mg/kg and 10 mg/kg alone or in addition to amikacin): 100%
decrease of mean bacterial densities in lungs vs vehicle controls ([11]; amikacin-alone or GN370-alone): ~2.0 log10 CFU/g
MIC50 [12]: 32 µg/mL
MIC90 [12]: >64 µg/mL
